This is an account of results in PMC4381051.

Where two headings read alike, the source gives them in different places.

The target in data set [1] is T1, Mst77F WT (UniProt P16909 1-215).
T1 sequence: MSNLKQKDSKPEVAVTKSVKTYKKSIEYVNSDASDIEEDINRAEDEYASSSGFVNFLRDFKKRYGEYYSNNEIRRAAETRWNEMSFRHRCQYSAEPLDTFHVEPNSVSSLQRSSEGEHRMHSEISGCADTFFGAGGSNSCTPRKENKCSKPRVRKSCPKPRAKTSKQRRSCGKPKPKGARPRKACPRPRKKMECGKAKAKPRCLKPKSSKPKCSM
Description: FP.

In a further data set the target is T2, Mst77F CTD* (UniProt P16909, CTD sequence randomized).
T2 sequence: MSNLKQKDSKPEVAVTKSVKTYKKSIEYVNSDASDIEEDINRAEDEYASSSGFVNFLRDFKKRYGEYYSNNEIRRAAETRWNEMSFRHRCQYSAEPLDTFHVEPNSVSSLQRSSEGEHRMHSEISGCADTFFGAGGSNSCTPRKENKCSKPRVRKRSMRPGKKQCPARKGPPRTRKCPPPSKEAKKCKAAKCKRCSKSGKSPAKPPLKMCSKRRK
The experiment in a line: FP.

The target in data set [2] is T3, Mst77F Δ110C (UniProt P16909 1-105).
T3 sequence: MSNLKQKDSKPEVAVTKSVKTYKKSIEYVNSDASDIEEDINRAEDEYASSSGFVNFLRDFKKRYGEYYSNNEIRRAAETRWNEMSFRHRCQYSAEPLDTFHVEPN
Description: FP.

The target in data set [3] is T3, Mst77F Δ110C. The experiment in a line: pull-down.
Data set [4] addresses T4, Mst77F Δ110C;Mst77F Δ100N (Drosophila melanogaster?;Drosophila …, UniProt P16909;P16909 1-105;101-215, |).
T4 sequence 1: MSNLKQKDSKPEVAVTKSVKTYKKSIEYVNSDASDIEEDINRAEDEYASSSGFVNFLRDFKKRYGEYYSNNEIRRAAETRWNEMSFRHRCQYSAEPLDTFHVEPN
T4 sequence 2: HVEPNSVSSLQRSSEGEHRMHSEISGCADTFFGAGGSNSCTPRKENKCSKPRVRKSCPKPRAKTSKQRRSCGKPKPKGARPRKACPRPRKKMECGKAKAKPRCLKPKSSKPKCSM
Description: pull-down.

For data set [5], the target named is T1, Mst77F WT. The experiment in a line: FP. The source holds these as a separate data set.

B1: random 12 bp DNA (dsDNA)
DNA 1: GTACCACGGTAG
DNA 2: CTACCGTGGTAC
For B1, the Kd (commonly the concentration at which binding is half-saturated) turned out to be 110 ± 50 nM with Mst77F WT [1] and 60 ± 10 nM in the data set with Mst77F CTD*. Also, the binding result with Mst77F Δ110C [2] is “no binding”.

B2: random 12 bp DNA, biotinylated (dsDNA)
DNA 1: GTACCACGGTAG
DNA 2: CTACCGTGGTAC
With B2, the figures for the binding result (in the data set with Mst77F Δ110C [3]; in data set [4]) were “no binding” and “binds”, respectively.

B3: poly-GC 12 bp DNA (dsDNA)
DNA 1: GCGCGCGCGCGC
DNA 2: GCGCGCGCGCGC
In turn, B3 displayed a dissociation constant (Kd) with Mst77F WT [5] of 170 ± 60 nM.

B4: poly-AT 12 bp DNA (dsDNA)
DNA 1: ATATATATATAT
DNA 2: ATATATATATAT
B4 had a Kd in the data set with Mst77F WT [5] of 70 ± 30 nM.
